In US20220242973A1 (Molecular Partners, published 2022):

Target: T1, Recombinant mouse FAP (mouse, UniProt P97321 26-761)
T1 construct: Bought soluble recombinant protein; also called mFAP
T1 sequence (looked up): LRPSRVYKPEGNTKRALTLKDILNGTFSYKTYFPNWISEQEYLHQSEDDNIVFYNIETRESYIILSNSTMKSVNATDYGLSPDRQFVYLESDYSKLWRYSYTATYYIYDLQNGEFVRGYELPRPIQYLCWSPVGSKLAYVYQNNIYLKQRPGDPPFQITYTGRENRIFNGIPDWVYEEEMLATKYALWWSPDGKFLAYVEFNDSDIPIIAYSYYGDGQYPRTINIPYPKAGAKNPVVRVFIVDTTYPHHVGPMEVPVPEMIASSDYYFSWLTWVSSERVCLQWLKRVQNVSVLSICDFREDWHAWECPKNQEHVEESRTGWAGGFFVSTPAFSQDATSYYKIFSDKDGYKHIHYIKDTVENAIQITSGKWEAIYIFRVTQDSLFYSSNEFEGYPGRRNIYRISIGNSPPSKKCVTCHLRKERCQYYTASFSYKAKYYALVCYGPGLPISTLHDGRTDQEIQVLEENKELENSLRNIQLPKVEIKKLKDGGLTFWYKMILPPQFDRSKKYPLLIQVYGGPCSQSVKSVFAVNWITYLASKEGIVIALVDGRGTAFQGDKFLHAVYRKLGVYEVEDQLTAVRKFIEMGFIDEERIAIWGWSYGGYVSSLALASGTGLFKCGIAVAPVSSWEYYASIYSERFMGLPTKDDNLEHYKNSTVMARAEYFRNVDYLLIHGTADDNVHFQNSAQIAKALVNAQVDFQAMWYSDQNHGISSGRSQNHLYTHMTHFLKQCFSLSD
Experiment: SPR (ProteOn), mouse FAP immobilized on GLC chip
Method: Briefly, mouse FAP was diluted in 10 mM Na-acetate pH5.3 buffer and covalently immobilized on a GLC chip (BioRad) to a level of around 2000 resonance units (RU). The interaction of DARPin® protein #41 and mFAP was then measured by injecting 200 μl running buffer (PBS, pH7.4 containing 0.005% Tween20®) containing serial dilutions of DARPin® protein #41 covering a concentration range between 50 nM and 3 nM (on-rate measurement), followed by a running buffer flow for 30 minutes at a constant flow rate of 100 μl/min (off-rate measurement). The regeneration was performed using 15 μl of 10 mM Glycine pH 2 followed by 15 μl of 124 mM H₃PO₄. The signals (i.e. resonance unit (RU) values) of the interspots and a reference injection (i.e. injection of running buffer only) were subtracted from the RU traces obtained after injection of DARPin® protein #41 (double-referencing). The binding of DARPin® protein #41 to hFAP was determined as described in Example 2.
Dissociation constants (KD) were calculated from the estimated on- and off-rates using standard procedures known to the person skilled in the art and are reported in Table 7. […] The dissociation constant of DARPin® protein #41 for binding to mouse FAP was determined to be 1.3 nM.

B1: DARPin® protein #41 (designed binder)
chain: MRGSHHHHHHGSDLGKKLLEAARAGQDDEVRELLKAGADVNAKDYFSHTPLHLAARNGHLKIVEVLLKAGADVNAKDFAGKTPLHLAANEGHLEIVEVLLKAGADVNAQDIFGKTPADIAADAGHEDIAEVLQKAAGSPTPTPTTPTPTPTTPTPTPTGSDLGEKLLVAALYGQDDEVRILLAAGADVNAKDQWGLTPLHKAALQGHLEIVEVLLKAGADVNAKDERGHTPLHWAARFGHLEIVEVLLKAGADVNAQDQKGYTPADLAALWGHEDIAEVLQKAA
notes: Fusion of a serum albumin-specific and a FAP-specific ankyrin repeat domain
  Kd: 1.3 nM
